A short description of this data set: yeast display, Sf9 membrane polyspecificity reagent, FACS + sequencing; frameworks hold sequencing errors. The method in brief:
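Polyreactivity labels are assigned by the sorting gate from which each nanobody was recovered. The gates were low and high (top ~1%), set on anti-HA fluorescence for expression and streptavidin fluorescence for reagent binding. Before sorting, galactose-induced (36–48 hours) yeast display cells were stained for 1 hour at 4 °C with 10% biotinylated, detergent-solubilized Sf9 membrane reagent.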
As to “QVQLVESGGGLVQAGGSLRLSCAASGSIFYVYAMGWYRQAPGKERELVAAINTAGGSTFYADSVKGRFTISRDNAKNPVSLQMTSLKPEETAVYYCAAERYRYRSTDTMGYWGQGTQVTVSS”, the “polyreactivity (PSR sort gate)” value is “low polyreactivity”.

“QVQLVESGGGLVQAGGSLRLSCAASGSIFYVYAMGWYRQAPGKERELVAAITNYADSVKGRFTISRDNAKNTVYLQMNSLKPEDTAVSYCAADWWRVEMDYWGQGTQVTVSS”: the “polyreactivity (PSR sort gate)” value was “low polyreactivity”.

“QVQLVESGGGLVQAGGSLRLSCAASGSIFYVYAMGWYRQAPGKERELVADITTRDGDTYYADSVKGRFTISRDNAKNTVYLQMNSLKPVDTAVYYCAADLNAYPQRAYDYWGQGTQLTVSS”: the “polyreactivity (PSR sort gate)” value is given as “low polyreactivity”.

With “QVQLVESGGGLVQAGGSLRLSCAASGSIFYVYVMGWYRPAPGKERELVAGITSGGSTYYADSVKGRFTISRDNAKNTVYFQMNSLKPEDTAVYFCAADLYYWGDYDYWGQGSQVTVSS”, the “polyreactivity (PSR sort gate)” value was “low polyreactivity”.

Take “QVQLVESGGGLVQAGGSLRLSCAASGSIFYVYVMGWYRQAPGKERELVAAIDTGGGDTYYADSVKGRFTISRDNAKNTVYLQMNSLKPEDTAVYYCSTSGPQYYSRNFDYWGQGTQVTVSS”: the “polyreactivity (PSR sort gate)” value is recorded as “low polyreactivity”.

Consider “QVQLVESGGGLVQAGGSLRLSCAASGSIFYWNVMGWYRQAPGKERELVAGISTSVGNTYYADSVKGRFTISRDNAKNTVYLQMNSLKPEDTAVYYCNVAGKQKPYYVTTRLDYWGQGTQVTVSS”, for which the “polyreactivity (PSR sort gate)” value is “high polyreactivity”.

On to “QVQLVESGGGLVQAGGSLRLSCAASGSIFYWYAMGWYRQAPGKERELVAAISGSGGTTYYADSVKGRFTISRDNAKNTVYLQMNSLKPEDTAVYYCATRGWYLGSRGYRTRYGYWGQGTQVTVSS”, for which the “polyreactivity (PSR sort gate)” value is “high polyreactivity”.

Consider “QVQLVESGGGLVQAGGSLRLSCAASGSIFYWYAMGWYRQAPGKERELVAAISSGGSTNYADSVKGRFTISRDNAKNTVYLQMNSLKPEDTSVYYCNADIRSFYCEYYTGLDSWGQGTQVTVSS”, for which the “polyreactivity (PSR sort gate)” value is given as “low polyreactivity”.

Consider “QVQLVESGGGLVQAGGSLRLSCAASGSIFYWYAMGWYRQAPGKERELVAAITYSGDRTYYADSVKGRFTISRDNAKNTVYLQMNSLKPEDTAVYYCAKDRGSGPLDYWGQGTQVTVSS”, for which the “polyreactivity (PSR sort gate)” value is “low polyreactivity”.

Turning to “QVQLVESGGGLVQAGGSLRLSCAASGSIFYYFALGWYRQAPGTERELVAAISRSGGRTYYADSVKGRFTISRDNAKNPVYLHMNSLKPEDTAFYYCNTDGYYTTAKYGYWGQGTQVTVSS”, the “polyreactivity (PSR sort gate)” value is listed as “high polyreactivity”.

Consider “QVQLVESGGGLVQAGGSLRLSCAASGSIFYYNAKGWYTQAPGKERELVAVISYRSGRTSDADSVKGRFTISRDNAKNTVYLQMNSLKPEDTAVYYCATRDWWRYRHTGVIKFDYWGQGTQVSVSS”, for which the “polyreactivity (PSR sort gate)” value is listed as “high polyreactivity”.

Turning to “QVQLVESGGGLVQAGGSLRLSCAASGSIFYYNALGWYRQAPGKERELVAVISYRSGRTSYADSVKGRFTISRDNAKNTVYLQMNSLKPEDTAVYYCNAKPAVSFSRHYYRYDYWGQGTQVTVSS”, the “polyreactivity (PSR sort gate)” value was “high polyreactivity”.

Consider “QVQLVESGGGLVQAGGSLRLSCAASGSIFYYNAMGWYRQAPGKERELVAAISSDGGTYYADSVKGRFTISRDNAKNTVYLQMNSLKPEDTAVYYCNAEVFWWDQWYDYWGQGTQVTVSS”, for which the “polyreactivity (PSR sort gate)” value is given as “high polyreactivity”.

Take “QVQLVESGGGLVQAGGSLRLSCAASGSIFYYNAMGWYRQAPGKERELVAVISYRSGRTSYADSVKGRFTISRDNAKNTVYLQMNSLKPEDTAVYYCIAKPAVSFSRHYYRYDYWGQGTQVTVSS”: the “polyreactivity (PSR sort gate)” value is recorded as “high polyreactivity”.

Consider “QVQLVESGGGLVQAGGSLRLSCAASGSIFYYNTMGWYRQAPGKAREFVADISVNGGSTYYADSVKGRFTISRDNAKNTVYLQMNSLKPEDSAVYYCAARRYQRPHGLYGYWGQGTQVTVSS”, for which the “polyreactivity (PSR sort gate)” value was “low polyreactivity”.

On to “QVQLVESGGGLVQAGGSLRLSCAASGSIFYYYAIGWYRKAPGKEREFVATIRRSGASTYYADSVKGRFTISRDNAKNTVYLQMNSLKPEDTAVYYCNAASARRPIYEAARWSKYDYWGQGTQVTVSS”, for which the “polyreactivity (PSR sort gate)” value is listed as “low polyreactivity”.

For “QVQLVESGGGLVQAGGSLRLSCAASGSIFYYYAMARYRPAPGKERELVASITSSGGTTSYADSVKGRFRISRDNAKNTVYLQMISLKPEDTAVYYCNAQVYRYRIGYDYWGQGTQVTVSS”, the “polyreactivity (PSR sort gate)” value is listed as “low polyreactivity”.

Regarding “QVQLVESGGGLVQAGGSLRLSCAASGSIFYYYAMGWYRQAPGKERELVAAITSGGSTYYADSVKGRFTISRDNAKNTVYYQMNSLIPEDTAVYYCAAVFYAAYLRYVWYSYDYWGQGTQVTVSS”, the “polyreactivity (PSR sort gate)” value is reported as “low polyreactivity”.

In the case of “QVQLVESGGGLVQAGGSLRLSCAASGSIFYYYAMGWYRQAPGKERELVAAITYRGTRTYYADSVKGRFTISRDNAKNTVYLLMNSLKPEDTAVYYCAAERRIYSSDSWGQGTQVTVSS”, the “polyreactivity (PSR sort gate)” value is given as “high polyreactivity”.

“QVQLVESGGGLVQAGGSLRLSCAASGSIFYYYAMGWYRQAPGKERELVASISSSGSTNYADSVKGRFTISRDNAKNTVYLLMKRLKPEDTAVYYCYADLSLGSYYSYYAYNSWGQGTQVTVSS”: the “polyreactivity (PSR sort gate)” value is “low polyreactivity”.

For the sequence “QVQLVESGGGLVQAGGSLRLSCAASGSIFYYYSMGWYRQAPGKERELVATISSTTSTYADSVKGRFTISRDNAKNTVYLQMNSLKPEDTAVYYCSYDYWGQGTQVTVSS”, the “polyreactivity (PSR sort gate)” value was “low polyreactivity”.

Regarding “QVQLVESGGGLVQAGGSLRLSCAASGSIGVNAMGWYRQAPGKERELVATISNSGGSTYYADSVKGRFTISRDNAKNTVYLQINSLKPEDTAVYYCAVAVTSYSSKKLYYWGQGTQVTVSS”, the “polyreactivity (PSR sort gate)” value is on record as “low polyreactivity”.

With “QVQLVESGGGLVQAGGSLRLSCAASGSIGYYAMGWYRQAPGKERELVAAIDWSGGDTYYADSVKGRFTISRDNAKNTVYLQMNSLKPEDTAVYYCAKRLYLKTCAASSADDYWGQGTQVTVSS”, the “polyreactivity (PSR sort gate)” value is “low polyreactivity”.

Regarding “QVQLVESGGGLVQAGGSLRLSCAASGSIIASNAMGWYRHAPWKERELVAAITNGGRTNYADSVKGRFTISRDNAKNTVYLQMNSMKPEDTAVYYCDALWSRCAGFEYCGQGTQVTVSS”, the “polyreactivity (PSR sort gate)” value is recorded as “high polyreactivity”.

On to “QVQLVESGGGLVQAGGSLRLSCAASGSIIGGYAMGWYRQAPGKERELVAAITRSGGRTYYADSVKGRFTISRDNAKNTVYLQMNSLKPEDTAVYYCNADRRRRFGYWGQGTQVTVSS”, for which the “polyreactivity (PSR sort gate)” value is reported as “high polyreactivity”.

As to “QVQLVESGGGLVQAGGSLRLSCAASGSIIGRNAMGWYRQAPGKERELVAAISTRGGRTYYADSVKGRFTISRDNAKNTVYLQMNSLKPEDTAVYYCADTYQYLKSGYYWGQGTQVTVSS”, the “polyreactivity (PSR sort gate)” value is given as “high polyreactivity”.

As for “QVQLVESGGGLVQAGGSLRLSCAASGSIIGRYAMGWYRQAPAKERELVATITFRDTSTYYADSVKGRFTISRDNAKNTVYLQMNSLKTEDTAVYYCAAVRADLWDIARYDYWGQGTQVTVSS”, the “polyreactivity (PSR sort gate)” value is on record as “low polyreactivity”.

On to “QVQLVESGGGLVQAGGSLRLSCAASGSIIGTYAMGWYRQAPGKERELVAAISSSGGRTYYADSVKGRFTISRDNAKNTVYLQMNSLKPEDTAVYYCNTRPGTVFRAGGDYWGQGTQVTVSS”, for which the “polyreactivity (PSR sort gate)” value is given as “high polyreactivity”.

Regarding “QVQLVESGGGLVQAGGSLRLSCAASGSIIHRNAMGWYRQAPGKERELVATITSNGGSTYYADSVKGRFTISRDNAKNTVYLQMNSLKPEETAVYYCARKYRSPISALLTGDYWGQGTQVTVSS”, the “polyreactivity (PSR sort gate)” value is reported as “low polyreactivity”.

Take “QVQLVESGGGLVQAGGSLRLSCAASGSIIKWNAMGWDRKAPGQEREFVASITRSGGSTYYADSVKGRITISRDNAKNTVYLQMNSRKPEDTAVFYCARSYGWYRWAGYDYWGKGTQVTVSS”: the “polyreactivity (PSR sort gate)” value is “high polyreactivity”.
